Read-outs that look alike come from different tables or passages of the source.
Columns and labels:
CXCR4 on Jurkat cells = target: T1, CXCR4 on Jurkat cells (Homo sapiens, UniProt P61073); experiment: Binding of CXCR4 Nanobodies to Jurkat cells
T1 construct: endogenous in cells; host or cells: Jurkat E6-1

[1] = target: T2, CXCR4 on Jurkat E6-1 cells (Homo sapiens, UniProt P61073); experiment: CXCL12/SDF-1a induced chemotaxis of Jurkat E6-1 cells; assay type: cell-based
T2 construct: endogenous in cells; host or cells: Jurkat E6-1
T2 sequence (P61073 whole entry): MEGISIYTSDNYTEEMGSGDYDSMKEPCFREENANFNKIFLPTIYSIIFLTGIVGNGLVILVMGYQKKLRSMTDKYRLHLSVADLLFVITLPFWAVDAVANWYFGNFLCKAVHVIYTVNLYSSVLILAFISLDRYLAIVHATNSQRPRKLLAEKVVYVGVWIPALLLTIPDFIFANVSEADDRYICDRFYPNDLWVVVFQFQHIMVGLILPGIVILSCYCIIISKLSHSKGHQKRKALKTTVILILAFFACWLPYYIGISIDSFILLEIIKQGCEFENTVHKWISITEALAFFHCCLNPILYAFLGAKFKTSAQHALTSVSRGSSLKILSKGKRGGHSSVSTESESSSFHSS
Procedure: (§1) To verify if bispecific CXCR4-IL3Ra polypeptides show increased affinity and potency on cells expressing both receptors, a CXCR4-dependent functional assay was carried out. To this end SDF-1a dependent chemotaxis on Jurkat E6-1 (CXCR4+/IL3Ra−), and MOLM-13 cells (CXCR4+/IL3Ra+) was performed for direct comparison of cells expressing both or only one receptor. Since the functional blockade is only mediated via CXCR4, avidity by the simultaneous binding of the anti-IL3Ra Nanobody® is expected to translate into increased potency in inhibition of chemotaxis.
(§2) Bispecific polypeptides were analyzed for inhibition of CXCL12-induced chemotaxis on cells endogenously expressing CXCR4. As chemoattractant a concentration of 750 pM SDF-1a was used on 100,000 cells/well for the Jurkat cell line, and 500,000 cells/well for the MOLM-13 cell line. On each plate the corresponding monovalent CXCR4 Nanobody was included as reference, allowing to calculate the fold increase of the bispecific within each plate. As additional control 1:1 mixtures of monovalent Nanobodies were included. In Table 9 the respective IC50 values are shown (average of n=3 experiments).
To verify if bispecific CXCR4-IL-3Ra polypeptides show increased affinity and potency on cells expressing both receptors, a CXCR4-dependent functional assay was done. Since MOLM-13 cells express CD4 in conjunction with CXCR4 and CD123, the same experimental set-up was used as described for the CXCR4-CD123 bispecific Nanobodies (see: Example 1.5.5).
Dose-dependent inhibition of CXCL12-induced chemotaxis by the panel of bispecific CD4-CXCR4 Nanobodies was determined on Jurkat (CXCR4+/CD4 low), and Molm-13 cells (CXCR4++/CD4++). As reference anti-CXCR4 antibody 12G5 was included on each plate. […] Remarkably, bispecific constructs in the inverse orientation were able to block CXCR4 function, despite their reduced affinity for CXCR4 due to the unfavourable position, although the blockade was partial. The much larger potency increases observed with Nanobodies targeting the CD4 and CXCR4 combination is most likely related to the higher relative expression levels of CD4 compared to CD123 on the Molm-13 cells.

CXCR4-VLP = target: T3, CXCR4-VLP (Homo sapiens, UniProt P61073); experiment: ELISA binding to CXCR4 viral lipoparticles (VLP)
T3 construct: purchased Integral Molecular (printed 'Molecular Integral')
T3 sequence (P61073 whole entry): as above
Procedure: Binding of CXCR4 Nanobodies to CXCR4-expressing cells was assessed on different cell lines, to assess EC50 values. For CXCR4 the membrane insertion is needed for proper conformation and functionality of the receptor. Therefore CXCR4 Nanobodies were characterized for binding to viral lipoparticles (VLP; Molecular Integral) expressing CXCR4 versus control lipoparticles in ELISA. To this end VLPs were coated at 0.5 U/well overnight at 4° C. using anti-myc antibodies for detection. Over all different binding assays, Nanobody 14D09 always exerted lower binding affinity than 14A02, as indicated by a shift in EC50 values. The results are depicted in FIG. 1.3.
To assess if the formatting into bispecific constructs affected the target binding capacity of the individual Nanobodies, the bispecific Nanobodies were analysed for binding to recombinant IL-3Ra (R&D Systems) in ELISA and to CXCR4 viral lipoparticles (Integral Molecular). […] However, CXCR4 binding of constructs with either CXCR4#1 or CXCR4#2 is retained only in one orientation, when the CXCR4 Nanobody is at the N-terminal position. The bispecific constructs where the CXCR4 Nanobody is positioned C-terminal show a 50-100-fold loss in binding to CXCR4-VLPs.

[2] = target: T4, CXCR4 on Caki-CXCR4 cells (Homo sapiens, UniProt P61073); experiment: Binding of CXCR4 Nanobodies to Caki-CXCR4 cells
T4 construct: expressed in transfected cells; host or cells: Caki-CXCR4
T4 sequence (P61073 whole entry): as above

CXCR4 on MOLM-13 cells = target: T5, CXCR4 on MOLM-13 cells (Homo sapiens, UniProt P61073); experiment: CXCL12/SDF-1a induced chemotaxis of MOLM-13 cells; assay type: cell-based; settings: average of 2-3 independent experiments; unit inferred; read-out: MOLM-13 IC50, inhibition of CXCL-12 induced chemotaxis
T5 construct: endogenous in cells; host or cells: MOLM-13
T5 sequence (P61073 whole entry): as above
Procedure: as §1
as §2, with “experiments). […]” for “experiments).”
Dose-dependent inhibition of CXCL12-induced chemotaxis by the panel of bispecific CD4-CXCR4 Nanobodies was determined on Jurkat (CXCR4+/CD4 low), and Molm-13 cells (CXCR4++/CD4++). […]

[3] = target: T4, CXCR4 on Caki-CXCR4 cells; experiment: Biotinylated SDF-1 displacement on Caki-CXCR4 cells (flow cytometry); assay type: binding; settings: 30 nM biotinylated SDF-1; read-out: Ligand competition Biotin-SDF-1 IC50
Procedure: CXCR4 Nanobodies were analysed for their ability to compete with the ligand CXCL12 (or SDF-1a) for receptor binding, by displacement of biotinylated SDF-1 on Caki-CXCR4 cells in flow cytometry. To this end serial dilutions of Nanobodies were incubated with 30 nM of biotinylated SDF-1 (R&D Systems Fluorokine kit) on cells, after which ligand binding was visualised using extravidin-PE. The biotin-SDF-1 competitor concentration used in this assay was below the EC50 value obtained in dose-titration, where IC50 values should reflect the Ki.

T1 sequence (P61073 whole entry): as above

EC50 (CXCR4 on Jurkat cells): 11 nM
IC50 ([1]; average of 2-3 independent experiments, unit inferred, read-out: Jurkat E6-1 IC50, inhibition of CXCL-12 induced chemotaxis): 10.4 nM
IC50 ([1]; cell line not stated, read-out: IC50 of monovalent CXCR4 Nanobody (chemotaxis potency)): 10 nM
IC50 ([1]; monovalent CXCR4 Nanobodies, Table 4, read-out: Chemotaxis Jurkat IC50): 11 nM
EC50 (CXCR4-VLP): 7.28 nM
EC50 [2]: 9.9 nM
IC50 (CXCR4 on MOLM-13 cells): 8.62 nM
IC50 [3]: 18.4 nM
B1: CXCR4#1: anti-CXCR4 Nanobody, SEQ ID NO: 1 (protein)
VHH: EVQLVESGGGLVQAGGSLRLSCVASGISSSKRNMGWYRQAPGKQRESVATISSGGNKDYTDAVKDRFTISRDTTKNTVYLQMNSLKPEDTAVYYCKIEAGTGWATRRGYTYWGQGTQVTVSS

From US20220242958A1, “BISPECIFIC NANOBODIES” (Ablynx N.V., priority 2013, published 2022)
